Where two headings read alike, the source gives them in different places.
Assays:
[1] = cited from earlier work
[2] = Lipid-water partition (log Po/w), octanol water system; type: physicochemical
Method: The lipid-water partition (logP) of ^68Ga-labelled complexes was determined in the octanol water system by following the procedure mentioned below. In brief, 490 μL of ultrapure water was added to each of three centrifuge tubes containing 0.5 mL of saturated n-octanol and then combined with 10 μL (1.85 MBq/0.05 mCi) of freshly prepared radiolabelled complexes by ultrasonication (3 min). The centrifuge tube was allowed to stand for approximately 1 min for the liquid to become stratified. The upper and lower liquids were defined as groups A (A1, A2, A3) and B (B1, B2, B3), accounting for the organic and aqueous phases, respectively. Then, 0.1 mL was retrieved from each of the 6 sections. The radioactivity (CPM) of both phases was determined using a gamma counter, and the lipid-water partition coefficient was calculated as follows: logP = log (A-background)/(B-background). The average of three tubes was recorded as the logP.

[3] = type: in vitro ADME; details: human
Method: In vitro serum binding studies for both ^68Ga-labelled NOTA-TATE and DOTA-TATE were carried out by following a generalized procedure summarized below. One millilitre of fresh anticoagulated (heparinized) human plasma was prepared. Freshly labelled compound (3.7 MBq, 0.1 mCi) was added to three centrifuge tubes, each containing 0.1 mL of human plasma. After incubation at 37 °C for 2 h, 1 mL of ice-cold methanol was added to each tube. The mixtures were separated by centrifugation (5 min, 3000 rpm) to collect the supernatant, which was repeated three times. A gamma counter was then used to measure the radioactivity of the supernatant (A) and the precipitate (B) in counts per minute (CPM); the plasma-protein binding rate was calculated as PPB = B/(A + B)100%, and the average of three tubes was recorded.

[4] = Biodistribution in AR42J tumour-bearing nude mice; details: mouse, in vivo
Method: (§1) Tumour cells were subcutaneously injected into the left forelimb of each nude mouse. Biodistribution and imaging studies were conducted when the tumour volume reached at least 1.0 × 1.0 × 1.0 cm^3.

[5] = Micro-PET/CT imaging of AR42J tumour-bearing nude mice; details: both sexes, nude, mouse, in vivo, iv, 2.96 MBq, total radioactivity
Method: as §1
(§2) Six (3 female and 3 male) mice with AR42J tumour xenografts (15–20 g) were used in the imaging study. All tumour-bearing mice were anaesthetized by intranasal inhalation of isoflurane. […] Images were acquired and reconstructed using micro-PET/CT at 30 min and 2 h after intravenous injection.

[6] = tested on: AR42J tumour-bearing mice; assay: as above; details: mouse, in vivo
Method: as §1, §2

clinical = details: human, in vivo, total radioactivity
Method: (§3) Twenty-two healthy volunteers gave informed consent and agreed to participate in the study. […] Each patient was injected with an average activity of 1.9 MBq/kg. The timing of image acquisition ranged from 30 to 45 min after injection (3 min/bed position). The PET image was attenuated and then reconstructed using the iterative reconstruction algorithm implemented.

healthy volunteers = assay: clinical; details: human, in vivo
Method: as §3

SSTR2 = tested on: SSTR2; parameters: method as in PMID 28864614; details: read-out: half inhibitory concentration (IC50) on SSTR2; cited from earlier work

O=C(O)CN1CCN(CC(=O)O)CCN(CC(=O)O)CC1 [NOTA, 1,4,7-triazacyclononane-1,4,7-triacetic acid]
log stability constant of the ^68Ga complex ([1]; NOTA ^68Ga complex, octahedral): 30.98

O=C(O)CN1CCN(CC(=O)O)CCN(CC(=O)O)CCN(CC(=O)O)CC1 [DOTA, 1,4,7,10-tetraazacyclododecane-1,4,7,10-tetraacetic acid]
log stability constant of the ^68Ga complex ([1]; DOTA ^68Ga complex, pseudo-octahedral geometry): 21.33

C[C@@H](O)[C@H](NC(=O)[C@@H]1CSSC[C@H](NC(=O)[C@@H](Cc2ccccc2)NC(=O)CN2CCN(CC(=O)O)CCN(CC(=O)O)CCN(CC(=O)O)CC2)C(=O)N[C@@H](Cc2ccc(O)cc2)C(=O)N[C@H](Cc2c[nH]c3ccccc23)C(=O)N[C@@H](CCCCN)C(=O)N[C@@H]([C@@H](C)O)C(=O)N1)C(=O)O [^68Ga-DOTA-TATE, metal not drawn]
log Po/w (partition coefficient) [2]: − 2.72 ± 0.16
fraction unbound [3]: 0.694
tissue uptake at 0.25 h ([4]; %ID/g Blood): 3.03 ± 1.96 %ID/g
tissue uptake at 1 h ([4]; %ID/g Blood): 0.35 ± 0.2 %ID/g
tissue uptake at 2 h ([4]; %ID/g Blood): 0.05 ± 0.02 %ID/g
tissue uptake at 0.25 h ([4]; %ID/g Gallbladder): 1.47 ± 0.62 %ID/g
tissue uptake at 0.25 h ([4]; %ID/g Intestines): 1.56 ± 1.47 %ID/g
tissue uptake at 0.5 h ([4]; %ID/g Intestines): 1.58 ± 1.77 %ID/g
tissue uptake at 2 h ([4]; %ID/g Intestines): 0.23 ± 0.15 %ID/g
tissue uptake at 0.25 h ([4]; %ID/g Kidney): 10.3 ± 8.89 %ID/g
tissue uptake at 0.5 h ([4]; %ID/g Kidney): 8.12 ± 2.71 %ID/g
tissue uptake at 1 h ([4]; %ID/g Kidney): 2.82 ± 2.54 %ID/g
tissue uptake at 2 h ([4]; %ID/g Kidney): 1.49 ± 0.57 %ID/g
tissue uptake at 0.25 h ([4]; %ID/g Liver): 1.27 ± 0.77 %ID/g
tissue uptake at 0.5 h ([4]; %ID/g Liver): 0.61 ± 0.35 %ID/g
tissue uptake at 1 h ([4]; %ID/g Liver): 0.34 ± 0.25 %ID/g
tissue uptake at 2 h ([4]; %ID/g Liver): 0.08 ± 0.07 %ID/g
tissue uptake at 0.5 h ([4]; %ID/g Lungs): 2.86 ± 1.47 %ID/g
tissue uptake at 1 h ([4]; %ID/g Lungs): 4.62 ± 3.42 %ID/g
tissue uptake at 2 h ([4]; %ID/g Lungs): 0.98 ± 0.22 %ID/g
tissue uptake at 0.25 h ([4]; %ID/g Muscle): 1.18 ± 1.26 %ID/g
tissue uptake at 2 h ([4]; %ID/g Muscle): 0.04 ± 0.01 %ID/g
tissue uptake at 0.25 h ([4]; %ID/g Skeleton): 1.94 ± 0.81 %ID/g
tissue uptake at 0.5 h ([4]; %ID/g Skeleton): 1.1 ± 0.63 %ID/g
tissue uptake at 1 h ([4]; %ID/g Skeleton): 0.8 ± 0.73 %ID/g
tissue uptake at 2 h ([4]; %ID/g Skeleton): 0.17 ± 0.06 %ID/g
tissue uptake at 0.25 h ([4]; %ID/g Spleen): 3.84 ± 4.03 %ID/g
tissue uptake at 0.5 h ([4]; %ID/g Spleen): 1.48 ± 0.84 %ID/g
tissue uptake at 1 h ([4]; %ID/g Spleen): 1.92 ± 1.75 %ID/g
tissue uptake at 2 h ([4]; %ID/g Spleen): 0.21 ± 0.19 %ID/g
tissue uptake at 0.25 h ([4]; %ID/g Stomach): 4.24 ± 2.66 %ID/g
tissue uptake at 0.5 h ([4]; %ID/g Stomach): 0.98 ± 0.49 %ID/g
tissue uptake at 1 h ([4]; %ID/g Stomach): 4.26 ± 2.58 %ID/g
tissue uptake at 0.5 h ([4]; %ID/g Tumour): 3.62 ± 1.94 %ID/g
tissue uptake at 1 h ([4]; %ID/g Tumour): 3.14 ± 2.07 %ID/g
tissue uptake at 2 h ([4]; %ID/g Tumour): 2.3 ± 1.34 %ID/g
SUV at 0.5 h [5]: 2.87 SUV
SUV at 2 h [5]: 1.83 SUV
gallbladder radioactivity on micro-PET/CT [6]: minimal gallbladder activity
SUV (clinical; both sexes, 1.9 MBq/kg, SUVmax Adrenals, average): 15.2 SUV
SUV (clinical; both sexes, 1.9 MBq/kg, SUVmax Blood pool, average): 0.9 SUV
SUV (clinical; both sexes, 1.9 MBq/kg, SUVmax Bone marrow, average): 0.8 SUV
SUV (clinical; both sexes, 1.9 MBq/kg, SUVmax Kidneys, average): 14.5 SUV
SUV (clinical; both sexes, 1.9 MBq/kg, SUVmax Large bowel, average): 2.2 SUV
SUV (clinical; both sexes, 1.9 MBq/kg, SUVmax Liver, average): 10.1 SUV
SUV (clinical; both sexes, 1.9 MBq/kg, SUVmax Lungs, average): 0.8 SUV
SUV (clinical; both sexes, 1.9 MBq/kg, SUVmax Lymph nodes, average): 1.1 SUV
SUV (clinical; both sexes, 1.9 MBq/kg, SUVmax Palatine tonsil, average): 2.6 SUV
SUV (clinical; both sexes, 1.9 MBq/kg, SUVmax Pancreas, average): 6.2 SUV
SUV (clinical; both sexes, 1.9 MBq/kg, SUVmax Small bowel, average): 3.4 SUV
SUV (clinical; both sexes, 1.9 MBq/kg, SUVmax Spleen, average): 26.9 SUV
SUV (clinical; both sexes, 1.9 MBq/kg, SUVmax Stomach, average): 6.1 SUV
SUV (clinical; both sexes, 1.9 MBq/kg, SUVmax Submandibular, average): 3.4 SUV
SUV (clinical; both sexes, 1.9 MBq/kg, SUVmax Thymus, average): 1.2 SUV
SUV (clinical; both sexes, iv, 1.9 MBq/kg, SUVmax Breast, average): 0.6 SUV
SUV (clinical; iv, 2.52 mCi, SUVmax kidney, single volunteer): 13.9 SUV
SUV (clinical; iv, 2.52 mCi, SUVmax liver, single volunteer): 9.4 SUV
SUV (clinical; iv, 2.52 mCi, SUVmax pituitary, single volunteer): 7.74 SUV
SUV (clinical; iv, 2.52 mCi, SUVmax spleen, single volunteer): 25.5 SUV
SUV (clinical; iv, 2.8 mCi, SUVmax liver, single volunteer): 7.8 SUV
SUV (clinical; iv, 2.8 mCi, SUVmax spleen, single volunteer): 16.3 SUV
SUVmax Blood pool, range (healthy volunteers): 0.6~1.4
SUVmax Bone marrow, range (healthy volunteers): 0.5~1.3
SUVmax Kidneys, range (healthy volunteers): 11.2~17.8
SUVmax Large bowel, range (healthy volunteers): 1.6~3.7
SUVmax Lungs, range (healthy volunteers): 0.5~1.3
SUVmax Palatine tonsil, range (healthy volunteers): 1.2~4.1
SUVmax Parotid gland, range (healthy volunteers): 1.9~5.4
SUVmax Pituitary gland, range (healthy volunteers): 2.4~7.9
SUVmax Small bowel, range (healthy volunteers): 2.2~4.9
SUVmax Spleen, range (healthy volunteers): 20.1~33.5
SUVmax Stomach, range (healthy volunteers): 3.1~8.3
SUVmax Submandibular, range (healthy volunteers): 1.7~5.7
SUVmax Thymus, range (healthy volunteers): 0.7~1.5
SUVmax kidneys, single value (healthy volunteers): 17.8
SUVmax lung tissue, single value (healthy volunteers): 1.3
SUVmax pituitary gland, single value (healthy volunteers): 7.9
SUVmax spleen, single value (healthy volunteers): 33.5
SUVmax stomach wall, single value (healthy volunteers): 8.3
radioactivity in the gallbladder (healthy volunteers): No radioactivity was seen
uptake in the brain (healthy volunteers): not taken up in the brain

Reference: article PMC7158967, “Comparative evaluation of ^68Ga-labelled TATEs: the impact of chelators on imaging” (EJNMMI Research, 2020)
